From paper PMC3882317 (Cell reports, 2013) come the findings set out here.

The target in assay [1] is T1, Flag-tagged Larp7 (UniProt Q4G0J3 1-582).
T1 sequence (looked up): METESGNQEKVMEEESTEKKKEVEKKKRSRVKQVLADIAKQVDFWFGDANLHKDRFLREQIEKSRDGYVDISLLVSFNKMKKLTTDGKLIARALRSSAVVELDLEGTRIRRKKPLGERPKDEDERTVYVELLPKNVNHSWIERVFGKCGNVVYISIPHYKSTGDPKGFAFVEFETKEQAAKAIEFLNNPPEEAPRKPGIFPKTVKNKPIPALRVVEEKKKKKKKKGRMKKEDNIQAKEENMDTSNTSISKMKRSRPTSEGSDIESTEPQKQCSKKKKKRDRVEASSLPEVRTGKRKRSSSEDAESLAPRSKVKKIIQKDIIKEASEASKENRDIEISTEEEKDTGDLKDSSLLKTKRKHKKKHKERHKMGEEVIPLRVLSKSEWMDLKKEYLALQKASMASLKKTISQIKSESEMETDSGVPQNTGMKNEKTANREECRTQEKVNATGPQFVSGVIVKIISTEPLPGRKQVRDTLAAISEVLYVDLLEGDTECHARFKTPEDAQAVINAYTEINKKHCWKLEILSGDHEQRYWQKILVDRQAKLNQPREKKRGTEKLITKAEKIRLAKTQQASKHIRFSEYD
Description: pull-down.

The target of assay [2] is T2, Flag-tagged MePCE (UniProt Q7L2J0 1-689).
T2 sequence (looked up): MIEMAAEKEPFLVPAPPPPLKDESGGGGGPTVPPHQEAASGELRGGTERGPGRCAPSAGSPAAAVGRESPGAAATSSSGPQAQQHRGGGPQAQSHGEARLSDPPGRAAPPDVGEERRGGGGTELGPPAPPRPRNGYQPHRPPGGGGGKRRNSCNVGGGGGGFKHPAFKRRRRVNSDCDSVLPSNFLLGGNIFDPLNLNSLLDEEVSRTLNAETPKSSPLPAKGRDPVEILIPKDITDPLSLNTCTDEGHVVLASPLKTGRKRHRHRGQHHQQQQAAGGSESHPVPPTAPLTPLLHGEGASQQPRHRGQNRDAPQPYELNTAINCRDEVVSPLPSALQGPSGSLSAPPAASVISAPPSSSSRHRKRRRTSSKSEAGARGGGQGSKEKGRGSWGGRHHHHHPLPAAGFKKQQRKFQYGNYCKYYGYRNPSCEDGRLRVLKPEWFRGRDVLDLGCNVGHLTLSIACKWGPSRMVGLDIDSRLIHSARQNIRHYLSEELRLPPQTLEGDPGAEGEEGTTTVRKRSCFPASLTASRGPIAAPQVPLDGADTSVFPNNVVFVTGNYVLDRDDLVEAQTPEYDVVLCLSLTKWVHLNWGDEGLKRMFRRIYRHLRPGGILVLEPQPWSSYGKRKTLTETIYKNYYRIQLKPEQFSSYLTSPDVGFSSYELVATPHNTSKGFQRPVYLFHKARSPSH
Description: pull-down.

B1: Strep-tagged PPM1G (enzyme, UniProt O15355 1-546, looked up)
chain: MGAYLSQPNTVKCSGDGVGAPRLPLPYGFSAMQGWRVSMEDAHNCIPELDSETAMFSVYDGHGGEEVALYCAKYLPDIIKDQKAYKEGKLQKALEDAFLAIDAKLTTEEVIKELAQIAGRPTEDEDEKEKVADEDDVDNEEAALLHEEATMTIEELLTRYGQNCHKGPPHSKSGGGTGEEPGSQGLNGEAGPEDSTRETPSQENGPTAKAYTGFSSNSERGTEAGQVGEPGIPTGEAGPSCSSASDKLPRVAKSKFFEDSEDESDEAEEEEEDSEECSEEEDGYSSEEAENEEDEDDTEEAEEDDEEEEEEMMVPGMEGKEEPGSDSGTTAVVALIRGKQLIVANAGDSRCVVSEAGKALDMSYDHKPEDEVELARIKNAGGKVTMDGRVNGGLNLSRAIGDHFYKRNKNLPPEEQMISALPDIKVLTLTDDHEFMVIACDGIWNVMSSQEVVDFIQSKISQRDENGELRLLSSIVEELLDQCLAPDTSGDGTGCDNMTCIIICFKPRNTAELQPESGKRKLEEVLSTEGAEENGNSDKKKKAKRD
For the molecule B1, the binding result in assay [1] and in assay [2] was “binds” in each case.
